Legend:
[1] = molecular target: T1, mouse C1q (mouse, UniProt P14106 26-253); experiment: OCTET biosensor, C1q immobilized, full length antibody in solution
T1 construct: In the CH50 assay the C1q is the one present in C57Bl/6 mouse serum; also called mouse C1q protein
Experimental: (§1) C1q-antibody interactions were measured using an OCTET™ System according to standard protocols and manufacturer's instructions. Briefly, human and mouse C1q proteins were immobilized separately on a biosensor at three concentrations (3 nM, 1.0 nM, and 0.33 nM).

[2] = molecular target: T2, human complement factor C1q (human, UniProt P02745 23-245; P02746 28-253; P02747 29-245); experiment: as above
T2 construct: The immunogen was C1q purified from human plasma (Complement Technology A-099); In the CH50 assays the C1q is the one present in human serum; Observed mass about 460 kDa; also called human C1q; hC1q
T2 sequence (P02745 23-245 limits assumed, chain 1 of 3): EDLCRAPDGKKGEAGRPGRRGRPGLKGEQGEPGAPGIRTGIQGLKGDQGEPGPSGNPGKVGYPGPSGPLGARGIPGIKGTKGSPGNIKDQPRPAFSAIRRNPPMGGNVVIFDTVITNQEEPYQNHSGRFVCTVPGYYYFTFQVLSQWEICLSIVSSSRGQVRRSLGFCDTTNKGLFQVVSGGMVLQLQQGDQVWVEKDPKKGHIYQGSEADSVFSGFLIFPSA
T2 sequence (P02746 28-253 limits assumed, chain 2 of 3): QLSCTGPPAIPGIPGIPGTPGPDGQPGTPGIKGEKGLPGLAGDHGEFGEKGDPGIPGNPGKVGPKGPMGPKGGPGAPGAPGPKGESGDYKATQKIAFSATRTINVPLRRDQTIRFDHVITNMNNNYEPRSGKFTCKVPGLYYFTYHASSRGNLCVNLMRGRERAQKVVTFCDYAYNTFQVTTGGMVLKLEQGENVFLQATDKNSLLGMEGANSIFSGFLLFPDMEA
T2 sequence (P02747 29-245 limits assumed, chain 3 of 3): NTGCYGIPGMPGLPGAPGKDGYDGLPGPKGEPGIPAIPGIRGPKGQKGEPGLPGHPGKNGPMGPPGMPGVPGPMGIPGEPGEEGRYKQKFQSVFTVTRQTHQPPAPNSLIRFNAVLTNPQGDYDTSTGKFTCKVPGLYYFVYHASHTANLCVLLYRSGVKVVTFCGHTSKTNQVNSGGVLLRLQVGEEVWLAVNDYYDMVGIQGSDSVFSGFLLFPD
Experimental: as §1

[3] = molecular target: T2, human complement factor C1q; experiment: OCTET biosensor, C1q immobilized; human C1q
Experimental: as §1

[4] = molecular target: T1, mouse C1q; experiment: OCTET biosensor, C1q immobilized; mouse C1q
Experimental: as §1

T1 sequence (chain, as listed by the source, chain 1 of 3): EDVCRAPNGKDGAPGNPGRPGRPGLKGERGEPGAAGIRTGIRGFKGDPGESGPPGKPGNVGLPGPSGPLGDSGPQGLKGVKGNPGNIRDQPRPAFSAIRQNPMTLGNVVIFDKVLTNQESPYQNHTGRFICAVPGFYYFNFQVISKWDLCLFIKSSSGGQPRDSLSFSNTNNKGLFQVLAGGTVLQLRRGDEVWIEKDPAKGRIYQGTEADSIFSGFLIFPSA
T1 sequence (P14106 26-253, chain 2 of 3): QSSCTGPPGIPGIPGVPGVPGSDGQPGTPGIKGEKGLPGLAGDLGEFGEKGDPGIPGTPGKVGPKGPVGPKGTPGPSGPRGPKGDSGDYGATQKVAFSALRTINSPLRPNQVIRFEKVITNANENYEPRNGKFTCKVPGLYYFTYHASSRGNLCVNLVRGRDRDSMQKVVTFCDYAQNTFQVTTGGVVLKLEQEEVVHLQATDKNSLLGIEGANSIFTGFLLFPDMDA
T1 sequence (chain, as listed by the source, chain 3 of 3): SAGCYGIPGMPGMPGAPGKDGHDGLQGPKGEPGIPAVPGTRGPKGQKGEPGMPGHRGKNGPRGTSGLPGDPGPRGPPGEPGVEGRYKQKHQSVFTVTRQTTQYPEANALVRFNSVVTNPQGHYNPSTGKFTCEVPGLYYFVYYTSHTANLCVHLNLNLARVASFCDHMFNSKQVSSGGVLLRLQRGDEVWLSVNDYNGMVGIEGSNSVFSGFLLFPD

B1: murine anti-human C1q monoclonal antibody M1 (antibody, mouse IgG1, V domains shown)
VH: QVQLQQPGAELVKPGASVKLSCKSSGYHFTSYWMHWVKQRPGQGLEWIGVIHPNSGSINYNEKFESKATLTVDKSSSTAYMQLSSLTSEDSAVYYCAGERDSTEVLPMDYWGQGTSVTVSS
VL: DVQITQSPSYLAASPGETITINCRASKSINKYLAWYQEKPGKTNKLLIYSGSTLQSGIPSRFSGSGSGTDFTLTISSLEPEDFAMYYCQQHNEYPLTFGAGTKLELK
notes: Tested as full length hybridoma antibody; Isotype mouse IgG1, kappa; also called ANN-005; anti-C1q antibody M1
Kd [1]: 0.0323 nM
Kd [2]: 0.0128 nM
Kd [3]: < 0.1 nM
Kd [4]: < 0.1 nM

Reference: patent US20170334976A1 (ANNEXON, published 2017)
